Changes are numbered by the printed parent chain. Several values for one entry are separate records, joined by “and”; a condition that tells them apart may be missing. Equal entries are not always repeated.
Tests used:
Conditions in all cases: both partners purified
[1] = molecular target: T1, recombinant full length human vimentin, His-tagged (human, UniProt P08670 1-466); test: ITC; 50 mM Tris, 150 mM NaCl, pH 8.0, 25°C; two preparations of CD443MUT (A, B), two pairs of concentrations each; n is vimentin/CD443MUT (mol/mol)
T1 construct: vimentin, human, full length; The oligomeric state in the assays is not measured; the discussion supposes unit-length filaments; also called recombinant vimentin; source: expressed using pET15b vector
T1 sequence (P08670 whole entry): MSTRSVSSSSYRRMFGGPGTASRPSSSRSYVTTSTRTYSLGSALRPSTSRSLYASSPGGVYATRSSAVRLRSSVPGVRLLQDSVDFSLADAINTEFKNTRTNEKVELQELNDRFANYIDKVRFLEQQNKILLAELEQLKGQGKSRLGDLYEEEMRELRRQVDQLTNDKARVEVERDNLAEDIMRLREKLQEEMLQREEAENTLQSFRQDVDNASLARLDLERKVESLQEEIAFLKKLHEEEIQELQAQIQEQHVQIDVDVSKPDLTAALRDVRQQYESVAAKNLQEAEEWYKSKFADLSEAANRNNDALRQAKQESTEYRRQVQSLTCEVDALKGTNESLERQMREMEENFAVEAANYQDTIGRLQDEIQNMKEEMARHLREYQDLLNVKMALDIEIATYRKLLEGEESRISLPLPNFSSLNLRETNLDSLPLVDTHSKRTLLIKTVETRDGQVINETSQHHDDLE

[2] = molecular target: T1, recombinant full length human vimentin, …; test: SPR; Biacore3000; vimentin amine-coupled to CM5 chip; CD443MUT 0.46–123 µM injected; 50 mM Tris, 150 mM NaCl, pH 8.0; parallel two-site binding model and equilibrium analysis (equation 1)
[3] = molecular target: T1, recombinant full length human vimentin, …; test: as above; remark: listed apart in the source
[4] = molecular target: T1, recombinant full length human vimentin, …; test: pull-down; GST-CD44HABD or GST-CD443MUT with recombinant vimentin

B1: CD443MUT (CD44HABD^R41AR78SY79S), recombinant, unlabeled (domain or fragment, human, UniProt P16070 21-132, looked up)
chain: QIDLNITCRFAGVFHVEKNGAYSISRTEAADLCKAFNSTLPTMAQMEKALSIGFETCSSGFIEGHVVIPRIHPNSICAANNTGVYILTSNTSQYDTYCFNASAPPEEDCTSV
notes: Two preparations (A, B) were used in ITC; also called CD44HABD Arg41Ala, Arg78Ser, Tyr79Ser triple mutant; source: expressed using pET11c vector
stoichiometry N [1]: 9.9 mol/mol and 7.2 mol/mol | KD from equilibrium response values (equation 1) [2]: 15 ± 2 µM | KD of the high-affinity site (Kdiss1/Kass1) [2]: 0.074 µM | stoichiometry N [2]: 6.2 mol/mol | KD of the low affinity site [3]: 15 µM

B2: GST-tagged CD44 hyaluronan binding domain 21–132 (CD44HABD) (domain or fragment, human, UniProt P16070 21-132, looked up)
chain: B1 chain with A21R, S58R, S59Y
notes: also called GST-HABD; CD44 HABD 21–132; source: recombinant GST fusion-protein, purified as described [27]
binding result [4]: binds

— PMC3244446, “Soluble CD44 Interacts with Intermediate Filament Protein Vimentin on Endothelial Cell Surface” (PLoS ONE, 2011)
